Experimental data published in publication PMC10362293.
Like-named read-outs stand apart in the source and are kept apart here.

Experiments:
[1] = target: FoxP1 FKH domain, single-cysteine mutant N32C (on C61S) labelled with Oregon Green 488 (human); experiment: fluorescence polarisation
[2] = target: FoxP1 FKH domain, single-cysteine mutant N32C (on C61S) labelled with Oregon Green 488 (human); experiment: fluorescence polarisation; remark: listed apart in the source

B1: FoxP2 FKH domain, unlabeled (domain or fragment)
chain: VRPPFTYATLIRQAIMESSDRQLTLNEIYSWFTRTFAYFRRNAATWKNAVRHNLSLHKCFVRVENVKGAVWTVDEVEYQKRRSQKITGSPTL
B1 gave a Kd [1] of 38 µM, a Kd [2] of 18 µM and a kon [2] of 583 M⁻¹ s⁻¹.
